Like-named read-outs stand apart in the source and are kept apart here.
How the values were obtained:
[1] = target: CH505 M11 gp120 (HIV-1); experiment: ELISA, gp120 on plate
[2] = target: CH505 M5 gp120 (HIV-1); experiment: ELISA, gp120 on plate
[3] = target: CH505 w020.14 gp120 (HIV-1); experiment: ELISA, gp120 on plate
[4] = target: CH505 w030.28 gp120 (HIV-1); experiment: ELISA, gp120 on plate
[5] = target: CH505 w053.31 gp120 (HIV-1); experiment: ELISA, gp120 on plate
[6] = target: CH0505.w4.3 Env, Env-pseudotyped virus produced in 293T cells (HIV-1); experiment: cell-based or functional assay
[7] = target: CH0505.w4.3 Env, pseudotyped virus produced in 293S GnTI- cells (HIV-1); experiment: cell-based or functional assay
[8] = target: CH0505TF Env, pseudotyped virus produced in 293S GnTI- cells (HIV-1); experiment: cell-based or functional assay
[9] = target: CH0505TF.G458Y Env, pseudotyped virus produced in 293S GnTI- cells (HIV-1); experiment: cell-based or functional assay
[10] = target: CH0505TF.gly3.197 Env, pseudotyped virus produced in 293S GnTI- cells (HIV-1); experiment: cell-based or functional assay
[11] = target: CH0505TF.gly3.276 Env, pseudotyped virus produced in 293S GnTI- cells (HIV-1); experiment: cell-based or functional assay
[12] = target: CH0505TF.gly3.461 Env, Env-pseudotyped virus produced in 293T cells (HIV-1); experiment: cell-based or functional assay
[13] = target: CH0505TF.gly3.461 Env, pseudotyped virus produced in 293S GnTI- cells (HIV-1); experiment: cell-based or functional assay
[14] = target: CH0505TF.gly4 Env, Env-pseudotyped virus produced in 293T cells (HIV-1); experiment: cell-based or functional assay
[15] = target: CH0505TF.gly4 Env, pseudotyped virus produced in 293S GnTI- cells (HIV-1); experiment: cell-based or functional assay
[16] = target: HIV-1 426c.DM (N460D/N463D) Env on Env-pseudotyped virus produced in 293T cells (HIV-1); experiment: cell-based or functional assay
[17] = target: HIV-1 426c.SM (N276D) Env on Env-pseudotyped virus produced in 293T cells (HIV-1); experiment: cell-based or functional assay
[18] = target: HIV-1 CH0505TF (CH505 transmitted/founder) Env on Env-pseudotyped virus produced in 293T cells (HIV-1); experiment: cell-based or functional assay
[19] = target: HIV-1 CH0505TF Env on Env-pseudotyped virus produced in 293S/GnTI-/- cells (Man5-enrichment) (HIV-1); experiment: cell-based or functional assay
[20] = target: HIV-1 CH0505TF.gly3.197 Env on Env-pseudotyped virus produced in 293T cells (HIV-1); experiment: cell-based or functional assay
[21] = target: HIV-1 CH0505TF.gly4 Env on Env-pseudotyped virus produced in 293T cells (HIV-1); experiment: cell-based or functional assay
[22] = target: HIV-1 Env 426c, Env-pseudotyped virus produced in 293T cells (HIV-1 clade C strain 426c); experiment: cell-based or functional assay
[23] = target: HIV-1 Env 426c.DM (N460D.N463D), Env-pseudotyped virus produced in 293S GnTI- cells (Man5-enriched) (HIV-1 clade C strain 426c); experiment: cell-based or functional assay
[24] = target: HIV-1 Env 426c.DM (N460D.N463D), Env-pseudotyped virus produced in 293T cells (HIV-1 clade C strain 426c); experiment: cell-based or functional assay
[25] = target: HIV-1 Env 426c.SM (N276D), Env-pseudotyped virus produced in 293S GnTI- cells (Man5-enriched) (HIV-1 clade C strain 426c); experiment: cell-based or functional assay
[26] = target: HIV-1 Env 426c.SM (N276D), Env-pseudotyped virus produced in 293T cells (HIV-1 clade C strain 426c); experiment: cell-based or functional assay
[27] = target: HIV-1 Env 426c.TM (N276D.N460D.N463D), Env-pseudotyped virus produced in 293S GnTI- cells (Man5-enriched) (HIV-1 clade C strain 426c); experiment: cell-based or functional assay
[28] = target: HIV-1 Env 426c.TM (N276D.N460D.N463D), Env-pseudotyped virus produced in 293T cells (HIV-1 clade C strain 426c); experiment: cell-based or functional assay
[29] = target: HIV-1 Env 426c.TM4 (S278R.G471S.N460D.N463D), Env-pseudotyped virus produced in 293T cells (HIV-1 clade C strain 426c); experiment: cell-based or functional assay
[30] = target: HIV-1 clade C strain 426c Env on Env-pseudotyped virus produced in 293T cells (HIV-1); experiment: cell-based or functional assay
[31] = target: HIV-1 CH0505TF (CH505 transmitted/founder) Env on Env-pseudotyped virus produced in 293T cells (HIV-1); experiment: cell-based or functional assay; remark: listed apart in the source
[32] = target: HIV-1 CH0505TF Env on Env-pseudotyped virus produced in 293S/GnTI-/- cells (Man5-enrichment) (HIV-1); experiment: cell-based or functional assay; remark: listed apart in the source
[33] = target: HIV-1 CH0505TF.G458Y Env on Env-pseudotyped virus produced in 293T cells (HIV-1); experiment: cell-based or functional assay
[34] = target: HIV-1 CH0505TF.N280D Env on Env-pseudotyped virus produced in 293S GnTI- cells (HIV-1); experiment: cell-based or functional assay
[35] = target: HIV-1 CH0505TF.N280D Env on Env-pseudotyped virus produced in 293T cells (HIV-1); experiment: cell-based or functional assay
[36] = target: HIV-1 CH0505TF.S365P Env on Env-pseudotyped virus produced in 293S GnTI- cells (HIV-1); experiment: cell-based or functional assay
[37] = target: HIV-1 CH0505TF.S365P Env on Env-pseudotyped virus produced in 293T cells (HIV-1); experiment: cell-based or functional assay

| Substance | log AUC [1] [log AUC] | log AUC [2] [log AUC] | log AUC [3] [log AUC] | log AUC [4] [log AUC] | log AUC [5] [log AUC] | IC50 (µg/ml) in TZM-bl [6] [µg/mL] | IC50 (µg/ml) in TZM-bl [7] [µg/mL] | IC50 (µg/ml) in TZM-bl [8] [µg/mL] | IC50 (µg/ml) in TZM-bl [9] [µg/mL] | IC50 (µg/ml) in TZM-bl [10] [µg/mL] | IC50 (µg/ml) in TZM-bl [11] [µg/mL] | IC50 (µg/ml) in TZM-bl [12] [µg/mL] | IC50 (µg/ml) in TZM-bl [13] [µg/mL] | IC50 (µg/ml) in TZM-bl [14] [µg/mL] | IC50 (µg/ml) in TZM-bl [15] [µg/mL] | ID50/IC50 in TZM-bl [16] [µg/mL] | ID50/IC50 in TZM-bl [17] [µg/mL] | IC50 (ug/ml) in TZM-bl cells [18] [µg/mL] | IC50 (ug/ml) in TZM-bl cells [19] [µg/mL] | IC50 (ug/ml) in TZM-bl cells [20] [µg/mL] | also measured |
| --- | --- | --- | --- | --- | --- | --- | --- | --- | --- | --- | --- | --- | --- | --- | --- | --- | --- | --- | --- | --- | --- |
| CH103 (antibody) | 13.4 | 9.8 | 12.6 | 12.8 | 13.6 | 0.31 | 0.18 | 0.57 | 0.44 | 0.19 | 0.007 | 0.014 | 0.009 | 0.002 | 0.005 | 6.1 | > 40 | 2.6 | 0.67 | 1.6 | IC50 (ug/ml) in TZM-bl cells [21]: 0.01 µg/mL; IC50 (µg/ml) in TZM-bl [22]: > 40 µg/mL; IC50 (µg/ml) in TZM-bl [23]: 0.63 µg/mL; IC50 (µg/ml) in TZM-bl [24]: 6.1 µg/mL; IC50 (µg/ml) in TZM-bl [25]: 2.2 µg/mL; IC50 (µg/ml) in TZM-bl [26]: > 40 µg/mL; IC50 (µg/ml) in TZM-bl [27]: 0.09 µg/mL; IC50 (µg/ml) in TZM-bl [28]: 5.2 µg/mL; IC50 (µg/ml) in TZM-bl [29]: 3.7 µg/mL; ID50/IC50 in TZM-bl [30]: > 40 µg/mL; IC50 (µg/ml) in TZM-bl [31]: 1.9 µg/mL; IC50 (µg/ml) in TZM-bl [32]: 0.57 µg/mL; IC50 (µg/ml) in TZM-bl [33]: 5.8 µg/mL; IC50 (µg/ml) in TZM-bl [34]: 0.24 µg/mL; IC50 (µg/ml) in TZM-bl [35]: 1.2 µg/mL; IC50 (µg/ml) in TZM-bl [36]: 1.7 µg/mL; IC50 (µg/ml) in TZM-bl [37]: > 50 µg/mL |
| CH235 (antibody) | 7.6 | 11.4 | 9.9 | 6.7 | 1.1 | 0.4 | 0.03 | 0.03 | < 0.02 | 0.006 | 0.02 | 0.086 | 0.011 | 0.022 | 0.004 | > 50 | > 50 | 0.35 | 0.03 | 0.16 | IC50 (µg/ml) in TZM-bl cells [9]: < 0.005 µg/mL; IC50 (µg/ml) in TZM-bl [18]: 0.35 µg/mL; IC50 (µg/ml) in TZM-bl [19]: < 0.02 µg/mL; IC50 (ug/ml) in TZM-bl cells [21]: 0.022 µg/mL; IC50 (µg/ml) in TZM-bl [22]: > 50 µg/mL; IC50 (µg/ml) in TZM-bl [23]: > 25 µg/mL; IC50 (µg/ml) in TZM-bl [24]: > 50 µg/mL; IC50 (µg/ml) in TZM-bl [25]: > 25 µg/mL; IC50 (µg/ml) in TZM-bl [26]: > 50 µg/mL; IC50 (µg/ml) in TZM-bl [27]: > 25 µg/mL; IC50 (µg/ml) in TZM-bl [28]: > 50 µg/mL; IC50 (µg/ml) in TZM-bl [29]: > 25 µg/mL; ID50/IC50 in TZM-bl [30]: > 50 µg/mL; IC50 (µg/ml) in TZM-bl [31]: 0.3 µg/mL; IC50 (µg/ml) in TZM-bl [32]: 0.03 µg/mL; IC50 (µg/ml) in TZM-bl [33]: 0.1 µg/mL; IC50 (µg/ml) in TZM-bl [34]: 3.4 µg/mL; IC50 (µg/ml) in TZM-bl [35]: > 25 µg/mL; IC50 (µg/ml) in TZM-bl [36]: 0.02 µg/mL; IC50 (µg/ml) in TZM-bl [37]: 0.6 µg/mL |
